Test results as given in US11161908.

Target: human BAFF-R-GFP fusion protein expressed on the surface of mouse fibroblast (L) cells, clone D2C (human) (UniProt Q96RJ3)
Assay: cell ELISA of hybridoma supernatant on (h)BAFF-R-expressing cells, anti-mouse IgG-HRP; same clone on parental L cell: 0.102

B1: mouse monoclonal antibody from hybridoma Clone 55 (antibody, V domains shown)
VH: QVTLKESGPGILKPSQTLSLTCSFSGFSLSTSGMGVGWIRQPSGKGLEWLAHIWWDDDKYYNSSLKSHLTISKDTSRNQVFLKITSVDTADTATYYCARSFGYGLDYWGQGTTLTVSS
VL: DIQMTQTTSSLSASLGDRVTISCSASQDISNYLNWYQQKPDGTVKLLIYYTSSLHSGVPSRFSGSGSGTDYSLTISSLEPEDIATYYCHQFSELPWTFGGGTKLEIK
  OD 450 nm: 1.07 OD 450 nm
